Values quoted from earlier work in patent US20230398266A1, “THERAPEUTIC AGENT FOR USE IN LOCAL TREATMENT OF INFLAMMATION ASSOCIATED WITH ATHEROSCLEROSIS AND/OR A THROMBOTIC STATE” (priority 2020, published 2023).

Tests used:
patients with COVID-19 = conditions: for side effects related to systemic administration: patients with COVID-19; for results in patients with COVID-19: systemic administration, preliminary studies
[1] = tested on: patients with previous myocardial infarction and elevated inflammatory indices; conditions: systemic administration; compared to placebo

Substance	side effects related to systemic administration (patients with COVID-19)	results in patients with COVID-19 (patients with COVID-19)	incidence of cardiovascular events (death from heart disease, myocardial infarction, cerebral stroke) [1]	incidence of serious side effects such as fatal sepsis and thrombocythemia [1]
anakinra	severe side effects	encouraging results	–	–
canakinumab	–	–	lower incidence of cardiovascular events compared to placebo	higher incidence of serious side effects
tocilizumab	severe side effects	encouraging results	–	–
